According to US20250197490A1, “ANTI-CORTICOTROPIN-RELEASING HORMONE ANTIBODIES AND USE IN CONGENITAL ADRENAL HYPERPLASIA” (HBM ALPHA THERAPEUTICS, INC., priority 2021, published 2025):
Entries after “also recorded” stand apart in the source; their conditions may differ.

T1: human UCN1 (Homo sapiens, UniProt P55089)
T1 sequence (P55089 83-122 limits assumed): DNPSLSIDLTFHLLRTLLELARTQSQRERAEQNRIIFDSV


How the values were obtained:
Mrap1 KO mice = Mrap1 KO mice constitutively high ACTH model; format: in vivo, mouse; conditions: for plasma ACTH concentration in Mrap1 KO mice: single dose of mAb 20 mg/kg
human UCN1 = molecular target: T1, human UCN1; test: Human UCN1 ELISA binding; conditions: in words
Protocol: Streptavidin (Thermo, Cat: 21125) was diluted in PBS to a concentration of 2 μg/ml. 100 μl of diluted streptavidin was added per well to ELISA microplates, and the plates were incubated overnight at 4° C. Plates were blocked with ELISA blocking solution (containing 2% w/v BSA, 0.05% (v/v) Tween-20, pH 7.4 PBS buffer) at 37° C. for 1 hour, and then incubated with 0.5 μg/mL CRH (NT biotin), 0.5 μg/mL CRH (CT biotin), 1 μg/mL human UCN1 (NT biotin), or 1 μg/mL human UCN1 (CT biotin) for 1 hour at 37° C. Plates were then washed and incubated with diluted anti-CRH antibody (Ab) at 15 μg/ml (100 nM, 10 diluted, 8 points) for 1 hour at 37° C. Subsequently, plates were washed and incubated with HRP-conjugated goat anti-human IgG (H+L) antibody (Jackson, Cat: 109-035-088) at 37° C. for 1 hour. […] 100 μL of ELISA stopping solution (Solarbio, Cat #: C1058) was added to terminate the reaction, and the optical density at 450 nm (OD450 nm) was determined by an ELISA plate reader (Molecular Devices, Spectra max 384 plus).
Streptavidin (Thermo, Cat: 21125) was diluted in PBS with a concentration of 2 μg/mL. […] 100 μL of ELISA stopping solution (Solarbio, Cat #: C1058) was then added to terminate the reaction, and the OD450 nm was determined by an ELISA plate reader (Molecular Devices, Spectra max 384 plus).

[1] = test system: wildtype female C57BL/6 mice; test: Wildtype mice restraint-stress model (ACTH and corticosterone); format: in vivo, mouse
Protocol: 8-10 week old wildtype female C57BL/6 mice were obtained from Charles River Laboratories. Mrap1 KO mice were obtained from Queen Mary University of London, UK. SSR125543A, a small molecule CRHR1 antagonist, was obtained from Axon Medchem (Cat #Axon 1799). Mouse Corticosterone (55-Corms-E01) and adrenocorticotropic hormone (ACTH) ELISA kits (21-ACTHU-E01) were obtained from ALPCO, USA. All procedures were carried out in accordance with the Guide for the Care and Use of Laboratory Animals of the National Institutes of Health. Protocols were approved by Charles River Laboratories Institutional Animal Care and Use Committee (IACUC).
To determine the effect of nonpainful physical restraint upon stress responses, mice were restrained in 50 ml polypropylene ventilated tubes in which the tip was cut off with a razor blade to allow the mouse to breathe easily for 15-20 minutes. A mouse was directed to the open tube and crawled in. A piece of paper towel was put behind the mouse so that it could not back out, and the cap was screwed on. The mouse was placed back in its cage, ventral size down on the bedding. This stressor is not considered painful, as mice are confined to a limited space (in a ventilated restraint tube) but not in an unnatural physical position. The investigator was present in the room during the entire procedure. At the end of the procedure, the mouse was removed by the tail.
On day 1, each mouse was injected intraperitoneally with 20 mg/kg of anti-CRH mAbs, hIgG1 or PBS (5 mice per group). On day 2 or 3, and 14 each mouse was subjected to physical restraint-stress described above for 15 or 20 min. Immediately after restraint-stress, 200 μl of blood was collected in EDTA tubes from the submandibular vein of each mouse. Plasma was separated using a refrigerated centrifuge (4° C. at 500×g for 10 min) and snap-frozen in dry ice for subsequent ACTH and corticosterone ELISA measurement.
On day 1, one half of mice were injected IP with 20 mg/kg of anti-CRH Ab or hIgG1 (5 mice per group). […]

Molecule | plasma ACTH concentration in Mrap1 KO mice (Mrap1 KO mice) | binding to human UCN1 peptides in ELISA (human UCN1) | duration of the effects of the mAb ([1]; wildtype mice restraint model) | extent of inhibition of ACTH and corticosterone versus SSR125543A ([1]; wildtype mice restraint model, SSR125543A 30 mg/kg) | efficacy versus SSR125543A in reducing plasma ACTH and corticosterone levels ([1]; wildtype mice restraint stress, mAb 20 mg/kg and 5 mg/kg, SSR125543A 30 mg/kg) | efficacy versus SSR125543A in reducing plasma ACTH levels (Mrap1 KO mice; Mrap1 KO mice, PR302064 20 mg/kg, PR302334-24 20, 10 and 5 mg/kg, SSR125543A 30 mg/kg) | extent of inhibition of ACTH versus SSR125543A (Mrap1 KO mice; Mrap1 KO mice, SSR125543A 30 mg/kg) | plasma ACTH concentrations in Mrap1 KO mice, dose dependent (Mrap1 KO mice; 20 mg/kg and 5 mg/kg, day 2 and day 16)
PR302334-26: Series 9 humanized variant of PR302334; VH SEQ ID NO: 277, VL SEQ ID NO: 328 (antibody, V domains shown, PR302334-18 VH, PR302334-26 VH, PR302334-27 VH; PR302334-10 VL, PR302334-24 VL, PR302334-26 VL, PR302334-4 VL) VH: EVQLVESGGGLVQPGGSLRLSCAASGFTFSTYAMSWVRQAPGKGLEWVASIRSGGTTYYPDSVKGRFTISRDNSKNSLYLQMNSLRAEDTAVYYCTRGIDWGQGTTVTVSS VL: DIVMTQSPDSLAVSLGERATINCKASQSVNNDVAWYQQKPGQPPRLLIYYASNRYTGVPDRFSGSGSGTDFTLTISSLQAEDLAVYFCQQDYSSWTFGGGTKVEIK | markedly reduced | except for PR302334-26, bound to human UCN1 peptides |  |  |  |  |  | 
PR302334-24: humanized variant of PR302334; VH SEQ ID NO: 275, VL SEQ ID NO: 328 (antibody, V domains shown, PR302334-16 VH, PR302334-24 VH, PR302334-25 VH; PR302334-10 VL, PR302334-24 VL, PR302334-26 VL, PR302334-4 VL) VH: EVQLVESGGGLVKPGGSLRLSCAASGFTFSTYAMSWVRQAPGKGLEWVASIRSGGTTYYPDSVKGRFTISRDNAKNSLYLQMNSLRAEDTAVYYCTRGIDWGQGTTVTVSS VL: DIVMTQSPDSLAVSLGERATINCKASQSVNNDVAWYQQKPGQPPRLLIYYASNRYTGVPDRFSGSGSGTDFTLTISSLQAEDLAVYFCQQDYSSWTFGGGTKVEIK | significantly reduced |  | at least 17 days | more complete inhibition | more efficacious; also recorded: superior efficacy | more efficacious; also recorded: superior efficacy | more complete inhibition | 
PR302038: humanized variant of PR301777; VH SEQ ID NO: 256, VL SEQ ID NO: 311 (antibody, V domains shown, PR302036 VH, PR302038 VH, PR302041 VH; PR302031 VL, PR302038 VL, PR302045 VL, PR302052 VL, PR302066 VL) VH: EMQLVESGGGLVQPGGSLRLSCAASGFTFSNYWMNWVRQAPGKGLEWVAEIRLKSNNYATHYAESVKGRFTISRDDSKSSVYLQMNSLKTEDTAVYYCTVGTLVYWGQGTLVTVSS VL: EIVLTQSPATLSLSPGERATLSCRASQSVSTSTYNYMHWFQQKPGQAPRLLIKFASNLESGIPARFSGSGSGTDFTLTISSLEPEDTAVYYCQHSWEIPYTFGQGTKLEIK |  |  |  |  |  |  |  | reduced
